Reference: patent US11015206B2, “Compositions and methods comprising sequences having hydroxyphenylpyruvate dioxygenase (HPPD) activity” (PIONEER HI-BRED INTERNATIONAL, INC., priority 2014, dated 2021)
Changes are numbered by the printed parent chain.

B1: P056028-C-10 (protein)
chain: MGPTPTATAAGAAVAAASAAEQAAFRLVGHRNFVRFNPRSDRFQTLAFHHVELWCADAASAAGRFSFALGVPLAARSDLSTGNSAHASLLLRSGSLSLLFTAPYAHGADAATAALPSFSAAAARRFAADHGLAVRAVALRVADAEDAFRASVAAGARPAFGPVDLGRGFRLAEVELYGDVVLRYVSYSDGAAGEPFLPGFEGVASPGAADYGLSRFDHIVGNVPELAPAAAYMAGFTGFHEFAEFTTEDVGTTESGLNSMALANNSENVLLPLNEPVHGTKRRSQIQTFLDHHGGPGVQHIALASDDVLRTLREMRARSAMGGFEFLPPPLSDYYDGVRKCAGDVLTEAQINECQELGVMVDRDDEGVLLQIFTKPVGDRPTFFLEIIQRIGCMEKDEKGQEYQKGGCGGFGKGNFGQLFKSIEDYEKSLEAKQAAAAATAQGS
modifications: Zea mays variant form created by artificial means.
B2: P056028-C-11 (protein)
chain: B1 chain with S188P, Y211L, I387L
modifications: Zea mays variant form created by artificial means.
B3: P056028-C-02 (protein)
chain: B1 chain with S188P, Y211L, K340R, E356K
modifications: Zea mays variant form created by artificial means.
B4: P056028-C-03 (protein)
chain: B1 chain with F67Y, S188P, L385I, I387L
modifications: Zea mays variant form created by artificial means.
B5: P056028-C-04 (protein)
chain: B1 chain with G107D, S188P, A191G, P206S, H278L, K340R, G417S, Q434R
modifications: Zea mays variant form created by artificial means.
B6: P056028-C-06 (protein)
chain: B1 chain with S188P, A191G, P206S, S214N, E356R, L385V
modifications: Zea mays variant form created by artificial means.
B7: P056028-C-08 (protein)
chain: B1 chain with L182M, S188P, E431D
modifications: Zea mays variant form created by artificial means.
B8: P056028-C-09 (protein)
chain: B1 chain with S188P, S214N, K340R
modifications: Zea mays variant form created by artificial means.
B9: P056028-D-01 (protein)
chain: B1 chain with A122T, S188P, P206Q, K340R, E356K
modifications: Zea mays variant form created by artificial means.
B10: P056028-D-10 (protein)
chain: B1 chain with S188P, P206Q, N265D, K340R
modifications: Zea mays variant form created by artificial means.
B11: P056028-D-11 (protein)
chain: B1 chain with A142T, S188P, A191G
modifications: Zea mays variant form created by artificial means.
B12: P056028-D-02 (protein)
chain: B1 chain with S188P, A191G
modifications: Zea mays variant form created by artificial means.
B13: P056028-D-04 (protein)
chain: B1 chain with L182M, S188P, Y211L, S214N, K340R, G417S
modifications: Zea mays variant form created by artificial means.
B14: P056028-D-05 (protein)
chain: B1 chain with S188P, P206S, E356R, G417S
modifications: Zea mays variant form created by artificial means.
B15: P056028-D-06 (protein)
chain: B1 chain with L182M, S188P, P206Q, Y211L, S214N, K340R, I387L, G417S
modifications: Zea mays variant form created by artificial means.
B16: P056028-D-07 (protein)
chain: B1 chain with S188P, P206Q, L385I
modifications: Zea mays variant form created by artificial means.
B17: P056028-D-09 (protein)
chain: B1 chain with S188P, A191G, K340R, E356K
modifications: Zea mays variant form created by artificial means.
B18: P056028-E-10 (protein)
chain: B1 chain with L182M, S188P, P206Q, K340R
modifications: Zea mays variant form created by artificial means.

Tests used:
Type in all cases: biochemical, Z. mays
[1] = system: 4-hydroxyphenylpyruvate dioxygenase (HPPD); experiment: ON rate ratio: HPPD reaction rate with vs without inhibitor in the 70 to 90 second interval; details: Table 7; tembotrione; combinatorial variants
Summary of the method: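 Indicator of inhibitor on-rate: reaction velocity in the 70 to 90 second window with 4 μM inhibitor divided by that without. Reactions contained 100 μM HPP and 60 or 120 nM HPPD; slower binding gives a larger ratio.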

[2] = system: 4-hydroxyphenylpyruvate dioxygenase (HPPD); experiment: OFF rate ratio: release of inhibitor from pre-formed enzyme-inhibitor complex; details: Table 7; tembotrione; combinatorial variants
Summary of the method: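 Inhibitor release from pre-formed complex (enzyme 7.2 μM, inhibitor 8 μM, 1 h RT) tracked as accelerating HPPD activity at 320 nm over 12 min, coupled via 50 nM HGD with 100 μM HPP at pH 7. OFF rate ratio: steady-state velocity relative to uninhibited initial velocity.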

[3] = system: 4-hydroxyphenylpyruvate dioxygenase (HPPD); experiment: Insensitivity parameter (ON × OFF) and trait fitness (ON × OFF × kcat/KM or × kcat); set-up: key to ON × OFF / Insensitivity, mesotrione, ON × OFF / Insensitivity, tembotrione, ON × OFF / Insensitivity, topramezone, ON × OFF / Insensitivity, sulcotrione, ON × OFF / Insensitivity, isoxaflutole (DKN), ON × OFF: insensitivity = ON rate ratio × OFF rate ratio (surrogate for KD)
Summary of the method: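 Trait fitness combines catalysis and insensitivity as kcat/KM × ON rate ratio × OFF rate ratio. The insensitivity parameter is the product of ON and OFF rate ratios, used in place of KD because the ON rate ratio is inverse.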

[4] = system: 4-hydroxyphenylpyruvate dioxygenase (HPPD); experiment: Estimate of kcat from initial rate at saturating hydroxyphenylpyruvate without inhibitor (ON rate ratio assay)
Summary of the method: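 kcat was estimated from the initial reaction rate with known enzyme level (60 or 120 nM HPPD). Hydroxyphenylpyruvate was at a saturating 100 μM, with no inhibitor present.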

[5] = Table 7, tembotrione, combinatorial variants
[6] = Table 7, combinatorial variants

| Molecule | ON rate ratio [1] | OFF rate ratio [2] | ON × OFF ([3]; Megatable 3, shuffled variants) | ON × OFF × kcat ([3]; Megatable 3, shuffled variants) | ON × OFF [3, 5] | ON × OFF × kcat [3, 5] | kcat ([4]; Megatable 3, shuffled variants) | kcat [4, 6] |
| --- | --- | --- | --- | --- | --- | --- | --- | --- |
| B1 | 0.699 | 0.356 | 0.249 | 3.63 | 0.249 | 3.63 | 0.243 s⁻¹ | 0.243 s⁻¹ |
| B2 | 0.731 | 0.293 | 0.214 | 2.64 | 0.214 | 2.64 | 0.205 s⁻¹ | 0.205 s⁻¹ |
| B3 | 0.717 | 0.379 | 0.272 | 5.11 | 0.272 | 5.11 | 0.313 s⁻¹ | 0.313 s⁻¹ |
| B4 | 0.739 | 0.356 | 0.263 | 3.62 | 0.263 | 3.62 | 0.228 s⁻¹ | 0.228 s⁻¹ |
| B5 | 0.727 | 0.322 | 0.234 | 5.32 | 0.234 | 5.32 | 0.378 s⁻¹ | 0.378 s⁻¹ |
| B6 | 0.742 | 0.351 | 0.261 | 2.77 | 0.261 | 2.77 | 0.177 s⁻¹ | 0.177 s⁻¹ |
| B7 | 0.712 | 0.381 | 0.271 | 3.65 | 0.271 | 3.65 | 0.225 s⁻¹ | 0.225 s⁻¹ |
| B8 | 0.706 | 0.314 | 0.222 | 3.76 | 0.222 | 3.76 | 0.283 s⁻¹ | 0.283 s⁻¹ |
| B9 | 0.728 | 0.348 | 0.254 | 5.39 | 0.254 | 5.39 | 0.355 s⁻¹ | 0.355 s⁻¹ |
| B10 | 0.670 | 0.253 | 0.170 | 3.07 | 0.170 | 3.07 | 0.302 s⁻¹ | 0.302 s⁻¹ |
| B11 | 0.719 | 0.261 | 0.188 | 3.21 | 0.188 | 3.21 | 0.285 s⁻¹ | 0.285 s⁻¹ |
| B12 | 0.730 | 0.299 | 0.218 | 5.31 | 0.218 | 5.31 | 0.405 s⁻¹ | 0.405 s⁻¹ |
| B13 | 0.696 | 0.197 | 0.137 | 1.71 | 0.137 | 1.71 | 0.207 s⁻¹ | 0.207 s⁻¹ |
| B14 | 0.730 | 0.508 | 0.371 | 4.66 | 0.371 | 4.66 | 0.21 s⁻¹ | 0.21 s⁻¹ |
| B15 | 0.731 | 0.424 | 0.310 | 3.07 | 0.310 | 3.07 | 0.165 s⁻¹ | 0.165 s⁻¹ |
| B16 | 0.775 | 0.370 | 0.286 | 2.60 | 0.286 | 2.60 | 0.152 s⁻¹ | 0.152 s⁻¹ |
| B17 | 0.652 | 0.371 | 0.242 | 3.16 | 0.242 | 3.16 | 0.217 s⁻¹ | 0.217 s⁻¹ |
| B18 | 0.702 | 0.339 | 0.238 | 2.73 | 0.238 | 2.73 | 0.192 s⁻¹ | 0.192 s⁻¹ |
